Results as given in paper PMC9598763, “WDR73 Depletion Destabilizes PIP4K2C Activity and Impairs Focal Adhesion Formation in Galloway–Mowat Syndrome” (Biology, 2022).

Columns and labels:
[1] = molecular target: T1, PIP4K2C on the HuProt human proteome microarray (human, UniProt Q8TBX8 1-421); assay: peptide or protein array; Cy3-tagged His-WDR73 incubated on the HuProt v4.0 20K Human Proteome Microarray (purified human proteins as N-terminal GST fusions) overnight at 4 °C, washed, scanned; candidates by Z-score > 3; details: both partners purified
T1 construct: PIP4K2C, phospholipid kinase, human; spotted on the array as N-terminal GST fusion; source: bought: HuProt v4.0 20K Human Proteome Microarray (CDI Laboratories), purified human proteins; not shown: GST, N-terminal, kept
T1 sequence (looked up): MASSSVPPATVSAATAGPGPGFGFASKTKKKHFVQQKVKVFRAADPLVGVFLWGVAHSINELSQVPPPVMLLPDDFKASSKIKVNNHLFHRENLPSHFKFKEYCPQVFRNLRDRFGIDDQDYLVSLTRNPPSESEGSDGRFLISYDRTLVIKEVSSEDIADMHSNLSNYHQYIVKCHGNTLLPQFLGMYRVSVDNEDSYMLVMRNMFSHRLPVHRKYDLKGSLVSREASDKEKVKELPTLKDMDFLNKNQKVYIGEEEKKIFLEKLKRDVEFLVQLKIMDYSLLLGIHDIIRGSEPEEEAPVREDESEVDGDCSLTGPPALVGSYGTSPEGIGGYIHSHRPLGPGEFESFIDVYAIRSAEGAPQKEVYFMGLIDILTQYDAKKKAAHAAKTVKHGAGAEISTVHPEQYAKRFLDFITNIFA

[2] = molecular target: T2, PIP4K2A on the HuProt human proteome microarray (human, UniProt P48426 1-406); assay: as above; details: both partners purified
T2 construct: PIP4K2A, human; spotted on the array as N-terminal GST fusion; source: bought: HuProt v4.0 20K Human Proteome Microarray (CDI Laboratories), purified human proteins; not shown: GST, N-terminal, kept
T2 sequence (looked up): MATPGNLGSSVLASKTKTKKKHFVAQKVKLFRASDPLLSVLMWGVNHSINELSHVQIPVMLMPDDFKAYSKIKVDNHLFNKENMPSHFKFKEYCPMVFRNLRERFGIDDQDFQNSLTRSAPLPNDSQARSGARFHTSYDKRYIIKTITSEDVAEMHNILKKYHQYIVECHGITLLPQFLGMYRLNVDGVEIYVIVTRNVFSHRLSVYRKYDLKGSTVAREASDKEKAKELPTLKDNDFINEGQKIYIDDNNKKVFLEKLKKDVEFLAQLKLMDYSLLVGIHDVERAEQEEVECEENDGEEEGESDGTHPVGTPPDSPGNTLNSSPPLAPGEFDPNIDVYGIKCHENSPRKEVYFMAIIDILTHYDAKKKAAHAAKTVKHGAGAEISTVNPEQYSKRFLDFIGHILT

B1: Cy3-tagged His-WDR73 (natural protein, human, UniProt Q6P4I2 1-378, looked up)
chain: MDPGDDWLVESLRLYQDFYAFDLSGATRVLEWIDDKGVFVAGYESLKKNEILHLKLPLRLSVKENKGLFPERDFKVRHGGFSDRSIFDLKHVPHTRLLVTSGLPGCYLQVWQVAEDSDVIKAVSTIAVHEKEESLWPRVAVFSTLAPGVLHGARLRSLQVVDLESRKTTYTSDVSDSEELSSLQVLDADTFAFCCASGRLGLVDTRQKWAPLENRSPGPGSGGERWCAEVGSWGQGPGPSIASLGSDGRLCLLDPRDLCHPVSSVQCPVSVPSPDPELLRVTWAPGLKNCLAISGFDGTVQVYDATSWDGTRSQDGTRSQVEPLFTHRGHIFLDGNGMDPAPLVTTHTWHPCRPRTLLSATNDASLHVWDWVDLCAPR
modifications: labeled with Cy3 (CyDye Protein Labelling CY3 MONO 5-PACK, GE)
notes: WDR73 (WD40-repeat-containing protein), human; Probe of the HuProt microarray; also called recombinant His-WDR73 fusion protein; purified human WDR73 protein; source: recombinant, purified by MerryBio Co., Ltd
B1: binds [1]; binds [2].
